Laboratory results reported in patent US20160367623A1, “AGONISTS OF GUANYLATE CYCLASE USEFUL FOR THE TREATMENT OF GASTROINTESTINAL DISORDERS, INFLAMMATION, CANCER AND OTHER DISORDERS” (priority 2015, published 2016).
Bridge positions count the residues as written; N and C are the ends. Ends that are not written are not given here.

Test system: patients with chronic idiopathic constipation (CIC)
Assay: Second phase 3 CIC trial: treatment emergent adverse events, safety

Substance: Asn^1-Asp^2-Glu^3-Cys^4-Glu^5-Leu^6-Cys^7-Val^8-Asn^9-Val^10-Ala^11-Cys^12-Thr^13-Gly^14-Cys^15-Leu^16 (NDECELCVNVACTGCL; disulfide 4-12, 7-15) [Plecanatide]
- Infections and infestations, Severe: patients N (3 mg): 0
- Infections and infestations: events E (3 mg): 38
- Infections and infestations: patients % (3 mg): (7.3) %
- Infections and infestations: patients N (3 mg): 34
- Influenza, Mild: events E (3 mg): 2
- Influenza, Mild: patients % (3 mg): (0.4) %
- Influenza, Mild: patients N (3 mg): 2
- Influenza, Moderate: events E (3 mg): 0
- Influenza, Moderate: patients N (3 mg): 0
- Influenza, Severe: events E (3 mg): 0
- Influenza, Severe: patients N (3 mg): 0
- Influenza: events E (3 mg): 2
- Influenza: patients % (3 mg): (0.4) %
- Influenza: patients N (3 mg): 2
- Injury, poisoning and procedural complications, Mild: events E (3 mg): 6
- Injury, poisoning and procedural complications, Mild: patients % (3 mg): (0.9) %
- Injury, poisoning and procedural complications, Mild: patients N (3 mg): 4
- Ligament sprain, Mild: events E (3 mg): 1
- Ligament sprain, Mild: patients % (3 mg): (0.2) %
- Ligament sprain, Mild: patients N (3 mg): 1
- Ligament sprain, Moderate: events E (3 mg): 1
- Ligament sprain, Moderate: patients % (3 mg): (0.2) %
- Ligament sprain, Moderate: patients N (3 mg): 1
- Ligament sprain, Severe: events E (3 mg): 0
- Ligament sprain, Severe: patients N (3 mg): 0
- Ligament sprain: events E (3 mg): 2
- Ligament sprain: patients % (3 mg): (0.4) %
- Ligament sprain: patients N (3 mg): 2
- Skeletal injury, Mild: events E (3 mg): 0
- Skeletal injury, Mild: patients N (3 mg): 0
- Skeletal injury, Moderate: events E (3 mg): 0
- Skeletal injury, Moderate: patients N (3 mg): 0
- Skeletal injury, Severe: events E (3 mg): 0
- Skeletal injury, Severe: patients N (3 mg): 0
- Skeletal injury: events E (3 mg): 0
- Skeletal injury: patients N (3 mg): 0
- Ileus: events (E) (3 mg (N = 467)): 0
- Infections and infestations (SOC): events E (3 mg (N = 467)): 38
- Infections and infestations (SOC): patients % (3 mg (N = 467)): (7.3) %
- Infections and infestations (SOC): patients N (3 mg (N = 467)): 34
- Influenza like illness, Mild: events (E) (3 mg (N = 467)): 0
- Influenza like illness, Moderate: events (E) (3 mg (N = 467)): 0
- Influenza like illness, Severe: events (E) (3 mg (N = 467)): 0
- Influenza like illness: events (E) (3 mg (N = 467)): 0
- Influenza like illness: events E (3 mg (N = 467)): 0
- Influenza like illness: patients N (3 mg (N = 467)): 0
- Influenza: events E (3 mg (N = 467)): 2
- Influenza: patients % (3 mg (N = 467)): (0.4) %
- Influenza: patients N (3 mg (N = 467)): 2
- Injury, poisoning and procedural complications (SOC): events E (3 mg (N = 467)): 10
- Nausea, Mild: events (E) (3 mg (N = 467)): 4
- Nausea, Mild: patients (%) (3 mg (N = 467)): (0.9) %
- Nausea, Moderate: events (E) (3 mg (N = 467)): 0
- SAE Musculoskeletal and connective tissue disorders, E events (3 mg (N = 467)): 0
- SAE Musculoskeletal and connective tissue disorders, N patients (3 mg (N = 467)): 0
- SAE Musculoskeletal and connective tissue disorders, No Reasonable Possibility, E events (3 mg (N = 467)): 0
- SAE Musculoskeletal and connective tissue disorders, No Reasonable Possibility, N patients (3 mg (N = 467)): 0
- SAE Musculoskeletal and connective tissue disorders, Reasonable Possibility, E events (3 mg (N = 467)): 0
- SAE Musculoskeletal and connective tissue disorders, Reasonable Possibility, N patients (3 mg (N = 467)): 0
- Infections and infestations, Severe: patients N (6 mg): 1
- Infections and infestations: events E (6 mg): 51
- Infections and infestations: patients % (6 mg): (9.2) %
- Infections and infestations: patients N (6 mg): 43
- Influenza, Mild: events E (6 mg): 4
- Influenza, Mild: patients % (6 mg): (0.9) %
- Influenza, Mild: patients N (6 mg): 4
- Influenza, Moderate: events E (6 mg): 3
- Influenza, Moderate: patients % (6 mg): (0.6) %
- Influenza, Moderate: patients N (6 mg): 3
- Influenza, Severe: events E (6 mg): 0
- Influenza, Severe: patients N (6 mg): 0
- Influenza: events E (6 mg): 7
- Influenza: patients % (6 mg): (1.5) %
- Influenza: patients N (6 mg): 7
- Injury, poisoning and procedural complications, Mild: events E (6 mg): 4
- Injury, poisoning and procedural complications, Mild: patients % (6 mg): (0.9) %
- Injury, poisoning and procedural complications, Mild: patients N (6 mg): 4
- Ligament sprain, Mild: events E (6 mg): 0
- Ligament sprain, Mild: patients N (6 mg): 0
- Ligament sprain, Moderate: events E (6 mg): 0
- Ligament sprain, Moderate: patients N (6 mg): 0
- Ligament sprain, Severe: events E (6 mg): 0
- Ligament sprain, Severe: patients N (6 mg): 0
- Ligament sprain: events E (6 mg): 0
- Ligament sprain: patients N (6 mg): 0
- Skeletal injury, Mild: events E (6 mg): 0
- Skeletal injury, Mild: patients N (6 mg): 0
- Skeletal injury, Moderate: events E (6 mg): 0
- Skeletal injury, Moderate: patients N (6 mg): 0
- Skeletal injury, Severe: events E (6 mg): 1
- Skeletal injury, Severe: patients % (6 mg): (0.2) %
- Skeletal injury, Severe: patients N (6 mg): 1
- Skeletal injury: events E (6 mg): 1
- Skeletal injury: patients % (6 mg): (0.2) %
- Skeletal injury: patients N (6 mg): 1
- Ileus: events (E) (6 mg (N = 469)): 0
- Infections and infestations (SOC): events E (6 mg (N = 469)): 51
- Infections and infestations (SOC): patients % (6 mg (N = 469)): (9.2) %
- Infections and infestations (SOC): patients N (6 mg (N = 469)): 43
- Influenza like illness, Mild: events (E) (6 mg (N = 469)): 1
- Influenza like illness, Mild: patients (%) (6 mg (N = 469)): (0.2) %
- Influenza like illness, Moderate: events (E) (6 mg (N = 469)): 0
- Influenza like illness, Severe: events (E) (6 mg (N = 469)): 0
- Influenza like illness: events (E) (6 mg (N = 469)): 1
- Influenza like illness: events E (6 mg (N = 469)): 1
- Influenza like illness: patients % (6 mg (N = 469)): (0.2) %
- Influenza like illness: patients (%) (6 mg (N = 469)): (0.2) %
- Influenza like illness: patients N (6 mg (N = 469)): 1
- Influenza: events E (6 mg (N = 469)): 7
- Influenza: patients % (6 mg (N = 469)): (1.5) %
- Influenza: patients N (6 mg (N = 469)): 7
- Injury, poisoning and procedural complications (SOC): events E (6 mg (N = 469)): 9
- Nausea, Mild: events (E) (6 mg (N = 469)): 3
- Nausea, Mild: patients (%) (6 mg (N = 469)): (0.6) %
- Nausea, Moderate: events (E) (6 mg (N = 469)): 2
- Nausea, Moderate: patients (%) (6 mg (N = 469)): (0.4) %
- SAE Musculoskeletal and connective tissue disorders, E events (6 mg (N = 469)): 0
- SAE Musculoskeletal and connective tissue disorders, N patients (6 mg (N = 469)): 0
- SAE Musculoskeletal and connective tissue disorders, No Reasonable Possibility, E events (6 mg (N = 469)): 0
- SAE Musculoskeletal and connective tissue disorders, No Reasonable Possibility, N patients (6 mg (N = 469)): 0
- SAE Musculoskeletal and connective tissue disorders, Reasonable Possibility, E events (6 mg (N = 469)): 0
- SAE Musculoskeletal and connective tissue disorders, Reasonable Possibility, N patients (6 mg (N = 469)): 0
- Influenza, Mild: events E (Active Combined): 6
- Influenza, Mild: patients % (Active Combined): (0.6) %
- Influenza, Mild: patients N (Active Combined): 6
- Influenza, Moderate: events E (Active Combined): 3
- Influenza, Moderate: patients % (Active Combined): (0.3) %
- Influenza, Moderate: patients N (Active Combined): 3
- Influenza, Severe: events E (Active Combined): 0
- Influenza, Severe: patients N (Active Combined): 0
- Influenza: events E (Active Combined): 9
- Influenza: patients % (Active Combined): (1.0) %
- Influenza: patients N (Active Combined): 9
- Skeletal injury, Mild: events E (Active Combined): 0
- Skeletal injury, Mild: patients N (Active Combined): 0
- Skeletal injury, Moderate: events E (Active Combined): 0
- Skeletal injury, Moderate: patients N (Active Combined): 0
- Skeletal injury, Severe: events E (Active Combined): 1
- Skeletal injury, Severe: patients % (Active Combined): (0.1) %
- Skeletal injury, Severe: patients N (Active Combined): 1
- Skeletal injury: events E (Active Combined): 1
- Skeletal injury: patients % (Active Combined): (0.1) %
- Skeletal injury: patients N (Active Combined): 1
- Infections and infestations (SOC): events E (Active Combined (N = 936)): 89
- Infections and infestations (SOC): patients % (Active Combined (N = 936)): (8.2) %
- Infections and infestations (SOC): patients N (Active Combined (N = 936)): 77
- Influenza like illness, Mild: events (E) (Active Combined (N = 936)): 1
- Influenza like illness, Mild: patients (%) (Active Combined (N = 936)): (0.1) %
- Influenza like illness, Moderate: events (E) (Active Combined (N = 936)): 0
- Influenza like illness, Severe: events (E) (Active Combined (N = 936)): 0
- Influenza like illness: events (E) (Active Combined (N = 936)): 1
